Experimental data published in patent US9695228B2, “EGFR and c-Met fibronectin type III domain binding molecules” (Janssen Biotech, Inc., priority 2012, dated 2017).
Substitutions are numbered along the chain they refer to. “And” between values parts separate entries of the source, which are not always exact repeats. Equal entries are not always repeated. “Also recorded” adds a separate entry of the source. Where two headings read alike, the source gives them in different places.

Experiments:
[1] = Differential scanning calorimetry in PBS (thermal stability); assay type: physicochemical; settings: DSC in PBS, c-Met-binding FN3 domains
c-Met-Fc fusion protein = molecular target: T1, c-Met-Fc fusion protein (Homo sapiens, UniProt P08581); assay: c-Met-Fc affinity by surface plasmon resonance (ProteOn); assay type: binding; settings: serine mutants of A3 in the context of ECB15, SPR
T1 construct: recombinant EGFR and/or c-Met extracellular domain was further analyzed by surface Plasmon resonance
T1 sequence (P08581 25-932 limits assumed): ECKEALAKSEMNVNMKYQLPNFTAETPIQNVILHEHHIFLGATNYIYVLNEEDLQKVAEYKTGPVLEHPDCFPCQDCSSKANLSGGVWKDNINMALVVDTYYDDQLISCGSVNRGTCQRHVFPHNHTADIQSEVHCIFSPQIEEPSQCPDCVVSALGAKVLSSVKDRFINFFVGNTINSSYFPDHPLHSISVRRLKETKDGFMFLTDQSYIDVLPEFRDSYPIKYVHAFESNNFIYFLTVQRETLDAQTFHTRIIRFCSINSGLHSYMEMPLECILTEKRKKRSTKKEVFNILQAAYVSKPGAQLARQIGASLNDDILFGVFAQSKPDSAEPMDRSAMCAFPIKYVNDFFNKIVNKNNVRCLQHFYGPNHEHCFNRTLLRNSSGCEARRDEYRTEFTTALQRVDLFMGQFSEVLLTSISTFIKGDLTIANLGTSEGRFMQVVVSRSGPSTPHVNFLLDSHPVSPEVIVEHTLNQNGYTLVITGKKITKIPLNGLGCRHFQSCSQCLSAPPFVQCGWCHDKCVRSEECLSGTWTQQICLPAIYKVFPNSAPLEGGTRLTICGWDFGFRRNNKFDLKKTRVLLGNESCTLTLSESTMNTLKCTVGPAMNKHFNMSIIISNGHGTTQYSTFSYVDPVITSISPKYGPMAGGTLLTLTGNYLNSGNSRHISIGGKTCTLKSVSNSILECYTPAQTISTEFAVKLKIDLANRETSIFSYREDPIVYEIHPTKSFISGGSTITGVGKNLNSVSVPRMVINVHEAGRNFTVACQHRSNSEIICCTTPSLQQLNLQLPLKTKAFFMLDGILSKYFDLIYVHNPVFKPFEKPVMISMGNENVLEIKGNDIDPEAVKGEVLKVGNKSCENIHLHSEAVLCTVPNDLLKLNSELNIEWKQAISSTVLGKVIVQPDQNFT

NCI-H1975 cell line = assay: Inhibition of growth of NCI-H1975 cell line (EGFR L858R; T790M); assay type: cell-based, human; settings: NCI-H1975, mutation T790M
Experimental: Inhibition of human tumor cell growth was assessed in standard attachment culture as described in Examples 3 or 6, or in low attachment conditions.

[2] = test system: NCI-H292 cells expressing human HGF, xenograft; assay: Tumor efficacy study with bispecific molecules of variable affinity, H292-HGF xenograft; assay type: in vivo, mice; settings: 25 mg/kg three times per week, FIG. 8
Experimental: One week after implantation, mice were stratified into groups with equivalent tumor volumes (mean tumor volume=77.9+/−1.7 mm^3). Mice were dosed three times per week with the bispecific molecules and tumor volumes were recorded twice weekly.

[3] = test system: H292-HGF human lung cancer xenograft; assay type: in vivo
Experimental: The H292-HGF cells were maintained in vitro in RPMI1640 medium supplemented with fetal bovine serum (10% v/v), and L-glutamine (2 mM) at 37° C. in an atmosphere of 5% CO2 in air. The cells were routinely subcultured twice weekly by trypsin-EDTA treatment. The cells growing in an exponential growth phase were harvested and counted for tumor inoculation.
Each mouse was inoculated subcutaneously at the right flank region with H292-HGF tumor cells (2×10^6) in 0.1 ml of PBS with cultrex (1:1) for tumor development. The treatments were started when the mean tumor size reached 139 mm^3. […] The date of tumor cell inoculation was denoted as day 0.
Before commencement of treatment, all animals were weighed and the tumor volumes were measured. Since the tumor volume can affect the effectiveness of any given treatment, mice were assigned into groups using randomized block design based upon their tumor volumes. […] The randomized block design was used to assign experimental animals to groups. First, the experimental animals were divided into homogeneous blocks according to their initial tumor volume. Secondly, within each block, randomization of experimental animals to treatments was conducted.
At the time of routine monitoring, the animals were checked for any effects of tumor growth and treatments on normal behavior, such as mobility, visual estimation of food and water consumption, body weight gain/loss (body weights were measured twice weekly), eye/hair matting and any other abnormal effect.
The endpoint was whether tumor growth can be delayed or tumor bearing mice can be cured. Tumor size was measured twice weekly in two dimensions using a caliper, and the volume was expressed in mm^3 using the formula: V=0.5 a×b^2 where a and b are the long and short diameters of the tumor, respectively. The tumor size was then used for calculations of both T-C and T/C values. T-C was calculated with T as the time (in days) required for the mean tumor size of the treatment group to reach 1000 mm^3, and C was the time (in days) for the mean tumor size of the control group to reach the same size. The T/C value (in percent) was an indication of antitumor efficacy; T and C were the mean tumor volume of the treated and control groups, respectively, on a given day. Complete tumor regression (CR) is defined as tumors that are reduced to below the limit of palpation (62.5 mm^3). Partial tumor regression (PR) is defined as tumors that are reduced from initial tumor volume. A minimum duration of CR or PR in 3 or more successive tumor measurements is required for a CP or PR to be considered durable.
Animals for which the body weight loss exceeded 20%, or for which the mean tumor size of the group exceeds 2000 mm^3 were euthanized. The study was terminated after two weeks of observation after the final dose.
Statistical analyses of difference in tumor volume among the groups were evaluated using a one-way ANOVA followed by individual comparisons using Games-Howell (equal variance not assumed). All data were analyzed using SPSS 18.0. p<0.05 was considered to be statistically significant.

B1: P114AR7P95-H8: c-Met-binding FN3 domain, SEQ ID NO: 49 (protein)
chain: LPAPKNLVVSRVTEDSARLSWTAPDAAFDSFWIRYFEFVSKGEAIVLTVPGSERSYDLTGLKPGTEYVVNIMGVKGGSISPPLSAIFTT
modifications: c-Met binding FN3 domain
[1]
  Thermal Stability (Tm): 83 C.

B2: P114AR7P92-F6: c-Met-binding FN3 domain, SEQ ID NO: 35 (protein)
chain: B1 chain with V39L, S40G, K41S, M72L, S78G, I79L, P81V
modifications: c-Met binding FN3 domain
[1]
  Thermal Stability (Tm): 76.8 C.

B3: P114AR5P74-A5: c-Met-binding FN3 domain, SEQ ID NO: 32 (protein)
chain: B1 chain with F36D, F38V, S40V, K41G, V68Y, M72L, P81V
modifications: c-Met binding FN3 domain
[1]
  Thermal Stability (Tm): 74.1 C.

B4: ECB15: bispecific, SEQ ID NO: 57 (145 in Table 19): P54AR4-83v2-(AP)5-P114AR7P94-A3 (protein)
chain: MLPAPKNLVVSEVTEDSARLSWDDPWAFYESFLIQYQESEKVGEAIVLTVPGSERSYDLTGLKPGTEYTVSIYGVHNVYKDTNMRGLPLSAIFTTAPAPAPAPAPLPAPKNLVVSRVTEDSARLSWTAPDAAFDSFWIRYFEFLGSGEAIVLTVPGSERSYDLTGLKPGTEYVVNIMGVKGGKISPPLSAIFTT
modifications: bispecific EGFR/cMet binding molecule
c-Met-Fc fusion protein
  ka: 351000 M⁻¹ s⁻¹
  kd: 0.000133 s⁻¹
NCI-H1975 cell line
  inhibition of growth (in words): inhibited growth of NCI-H1975 cell line

B5: ECB39: bispecific linked to albumin binding domain, SEQ ID NO: 121; medium EGFR / high c-Met affinity (protein)
chain: MLPAPKNLVVSEVTEDSARLSWADPHGFYDSFLIQYQESEKVGEAIVLTVPGSERSYDLTGLKPGTEYTVSIYGVHNVYKDTNMRGLPLSAIFTTAPAPAPAPAPLPAPKNLVVSRVTEDSARLSWTAPDAAFDSFWIRYFEFLGSGEAIVLTVPGSERSYDLTGLKPGTEYVVNIMGVKGGKISPPLSAIFTTAPAPAPAPAPLAEAKVLANRELDKYGVSDYYKNLINNAKTVEGVKALLDEILAALP
modifications: Bispecific EGFR/c-Met binding molecule
[2]
  tumor growth inhibition (in words): showed the most efficacy

B6: ECB18: bispecific linked to albumin binding domain, SEQ ID NO: 118; high EGFR / medium c-Met affinity (protein)
chain: MLPAPKNLVVSEVTEDSARLSWDDPWAFYESFLIQYQESEKVGEAIVLTVPGSERSYDLTGLKPGTEYTVSIYGVHNVYKDTNMRGLPLSAIFTTAPAPAPAPAPLPAPKNLVVSRVTEDSARLSWTAPDAAFDSFWIRYDEVVVGGEAIVLTVPGSERSYDLTGLKPGTEYYVNILGVKGGSISVPLSAIFTTAPAPAPAPAPLAEAKVLANRELDKYGVSDYYKNLINNAKTVEGVKALLDEILAALP
modifications: Bispecific EGFR/c-Met binding molecule
[2]
  tumor growth inhibition (in words): delay in tumor growth

B7: ECB38: bispecific linked to albumin binding domain, SEQ ID NO: 120; high EGFR / high c-Met affinity; test article of Tables 14-16 (protein)
chain: B5 chain with A23D, H26W, G27A, D30E
modifications: Bispecific EGFR/c-Met binding molecule
[2]
  tumor growth inhibition (in words): showed the most efficacy
[3]; 25 mg/kg, 3 times/week x 3 weeks
  treatment tolerated: 7 out of 10
[3]; day 7 (start of treatment), mean ± SEM, doses as in column head
  Tumor volume: 137 ± 7 mm^3
[3]; day 9, mean ± SEM
  Tumor volume: 142 ± 7 mm^3
[3]; day 13, mean ± SEM
  Tumor volume: 83 ± 6 mm^3
[3]; day 16, mean ± SEM
  Tumor volume: 44 ± 7 mm^3
[3]; day 20, mean ± SEM
  Tumor volume: 30 ± 6 mm^3
[3]; day 23, mean ± SEM
  Tumor volume: 23 ± 7 mm^3
[3]; day 23 after tumor inoculation, doses given with treatment, listed as bispecific EGFR/c-Met molecule
  Tumor Size at day 23: 23 mm^3 and 23 ± 7 mm^3
[3]; day 27, mean ± SEM
  Tumor volume: 21 ± 5 mm^3
[3]; day 30, mean ± SEM
  Tumor volume: 23 ± 6 mm^3
[3]; doses as in Table 14, listed as bispecific EGFR/c-Met molecule
  antitumor activity (in words): complete tumor regression (CR) in all mice; also recorded: complete response
[3]; mouse, in vivo
  mice euthanized when BWL>20% during the treatment period: 3 mice
  tolerability / body weight loss (in words): Slight toxicity
